# The supplement of paper PMC9112550, “Optimization of the antimicrobial peptide Bac7 by deep mutational scanning” (BMC Biology, 2022)
# Tested on: Escherichia coli TOP10
# Test: shrunken log2 fold change of peptide-encoding DNA abundance (4.5 h post-induction vs induction); higher = less antimicrobial activity (less host growth inhibition)
# Conditions: time post-induction: 4.5 h; library: site-saturation at positions 5, 18, 19, 20
# 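Also: peptides expressed intracellularly from a pBAD plasmid library in pooled LB shake-flask culture, induced with 0.3% L-arabinose, DNA abundance read by NGS, three biological replicates, DESeq2 with apeglm shrinkage.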
row,Sequence,shrunken log2 fold change
1,RRIRDRPPRLPRPRPRPQAFPRP,-0.184
2,RRIRDRPPRLPRPRPRPQANPRP,0.231
3,RRIRDRPPRLPRPRPRPQFKPRP,-0.0159
4,RRIRDRPPRLPRPRPRPQHIPRP,-0.762
5,RRIRDRPPRLPRPRPRPQHSPRP,-0.312
6,RRIRDRPPRLPRPRPRPQKNPRP,-0.431
7,RRIRDRPPRLPRPRPRPQKPPRP,-0.00349
8,RRIRDRPPRLPRPRPRPQLEPRP,-0.0748
9,RRIRDRPPRLPRPRPRPQLHPRP,0.267
10,RRIRDRPPRLPRPRPRPQLKPRP,-0.0603
11,RRIRDRPPRLPRPRPRPQMTPRP,0.103
12,RRIRDRPPRLPRPRPRPQNFPRP,-0.707
13,RRIRDRPPRLPRPRPRPQNGPRP,-0.0018
14,RRIRDRPPRLPRPRPRPQPNPRP,0.072
15,RRIRDRPPRLPRPRPRPQPRPRP,0.458
16,RRIRDRPPRLPRPRPRPQPWPRP,0.11
17,RRIRDRPPRLPRPRPRPQQRPRP,0.147
18,RRIRDRPPRLPRPRPRPQTMPRP,-0.067
19,RRIRDRPPRLPRPRPRPQTVPRP,0.0628
20,RRIRDRPPRLPRPRPRPQTYPRP,-0.24
21,RRIRDRPPRLPRPRPRPQYYPRP,0.003
22,RRIRDRPPRLPRPRPRPRCIPRP,-0.0108
23,RRIRDRPPRLPRPRPRPRDHPRP,0.0411
24,RRIRDRPPRLPRPRPRPRDLPRP,0.139
25,RRIRDRPPRLPRPRPRPRDNPRP,-0.339

row,Sequence,shrunken log2 fold change
1,RRIRDRPPRLPRPRPRPRECPRP,0.0105
2,RRIRDRPPRLPRPRPRPRFSPRP,-0.037
3,RRIRDRPPRLPRPRPRPRGEPRP,0.267
4,RRIRDRPPRLPRPRPRPRGHPRP,0.321
5,RRIRDRPPRLPRPRPRPRGMPRP,0.0251
6,RRIRDRPPRLPRPRPRPRHPPRP,0.0563
7,RRIRDRPPRLPRPRPRPRIEPRP,0.119
8,RRIRDRPPRLPRPRPRPRIHPRP,-0.563
9,RRIRDRPPRLPRPRPRPRIWPRP,0.53
10,RRIRDRPPRLPRPRPRPRKCPRP,-0.0114
11,RRIRDRPPRLPRPRPRPRKGPRP,0.0785
12,RRIRDRPPRLPRPRPRPRKIPRP,0.0843
13,RRIRDRPPRLPRPRPRPRMCPRP,0.0171
14,RRIRDRPPRLPRPRPRPRRGPRP,0.365
15,RRIRDRPPRLPRPRPRPRRIPRP,0.0214
16,RRIRDRPPRLPRPRPRPRRNPRP,0.225
17,RRIRDRPPRLPRPRPRPRRSPRP,0.174
18,RRIRDRPPRLPRPRPRPRSIPRP,-0.0279
19,RRIRDRPPRLPRPRPRPRSKPRP,0.401
20,RRIRDRPPRLPRPRPRPRSPPRP,-0.183
21,RRIRDRPPRLPRPRPRPRWFPRP,-0.0867
22,RRIRDRPPRLPRPRPRPSAQPRP,0.469
23,RRIRDRPPRLPRPRPRPSDRPRP,0.159
24,RRIRDRPPRLPRPRPRPSEDPRP,0.00101
25,RRIRDRPPRLPRPRPRPSHSPRP,-0.127

row,Sequence,shrunken log2 fold change
1,RRIRDRPPRLPRPRPRPSIRPRP,-0.103
2,RRIRDRPPRLPRPRPRPSKAPRP,-0.393
3,RRIRDRPPRLPRPRPRPSKCPRP,-0.317
4,RRIRDRPPRLPRPRPRPSLEPRP,0.245
5,RRIRDRPPRLPRPRPRPSLGPRP,0.487
6,RRIRDRPPRLPRPRPRPSLPPRP,-0.00636
7,RRIRDRPPRLPRPRPRPSMLPRP,-0.244
8,RRIRDRPPRLPRPRPRPSNVPRP,-0.0805
9,RRIRDRPPRLPRPRPRPSPKPRP,-0.00809
10,RRIRDRPPRLPRPRPRPSRQPRP,-0.12
11,RRIRDRPPRLPRPRPRPSVQPRP,0.111
12,RRIRDRPPRLPRPRPRPSVVPRP,-0.0127
13,RRIRDRPPRLPRPRPRPSWDPRP,0.199
14,RRIRDRPPRLPRPRPRPSYHPRP,-0.835
15,RRIRDRPPRLPRPRPRPSYSPRP,-0.581
16,RRIRDRPPRLPRPRPRPTCSPRP,0.112
17,RRIRDRPPRLPRPRPRPTCVPRP,0.346
18,RRIRDRPPRLPRPRPRPTEEPRP,0.355
19,RRIRDRPPRLPRPRPRPTERPRP,0.463
20,RRIRDRPPRLPRPRPRPTFLPRP,0.196
21,RRIRDRPPRLPRPRPRPTGAPRP,1.37
22,RRIRDRPPRLPRPRPRPTGPPRP,0.334
23,RRIRDRPPRLPRPRPRPTHKPRP,-0.0994
24,RRIRDRPPRLPRPRPRPTHSPRP,0.177
25,RRIRDRPPRLPRPRPRPTIDPRP,0.607
